Measurements reported in patent US20250243290A1.
Several values for one entry are separate records, joined by “and”; a condition that tells them apart may be missing. Equal entries are not always repeated. Where two headings read alike, the source gives them in different places.

Experiments:
Assay in all cases: peptide-array ELISA [Con't]
E2LS2…2RPGW = molecular target: E2LS2…2RPGW
LCAPLRK2…2APGTFSN = molecular target: LCAPLRK2…2APGTFSN
C2…22SK2SPGQHC = molecular target: C2…22SK2SPGQHC
[1] = molecular target: Y2…2…
E2LSCGSR2…2T = molecular target: E2LSCGSR2…2T
LSCGSR2…2T2 = molecular target: LSCGSR2…2T2
…2…2RPGW = molecular target: …2…2RPGW
QNRI2…2R = molecular target: QNRI2…2R
LSKQEG2…2APGTFSN = molecular target: LSKQEG2…2APGTFSN
LS2…2TREQNRIC = molecular target: LS2…2TREQNRIC
E2LSCGSR2…2 = molecular target: E2LSCGSR2…2
2LSCGSR2…2 = molecular target: 2LSCGSR2…2
CAPLRK2…2RLC = molecular target: CAPLRK2…2RLC
LSCGSR2…2 = molecular target: LSCGSR2…2
[2] = molecular target: E2LS2…2…
…2…2TSTSPTRC = molecular target: …2…2TSTSPTRC
NWVPE2…2T = molecular target: NWVPE2…2T
WVPE2…2T2 = molecular target: WVPE2…2T2
…2RPGW = molecular target: …2RPGW
RLCAPLRK2…2APGTFSN = molecular target: RLCAPLRK2…2APGTFSN
E2LS2…2TREQNRIC = molecular target: E2LS2…2TREQNRIC
[3] = molecular target: SKQEGCRL2…
[4] = molecular target: …2…
[5] = molecular target: 2…2…
VPE2LS2…2RPG = molecular target: VPE2LS2…2RPG
…2…2RPG = molecular target: …2…2RPG
[6] = molecular target: VPE2LS2…2…
LWNWVPE2…2T2 = molecular target: LWNWVPE2…2T2
E2LS2…2RPG = molecular target: E2LS2…2RPG
WVPE2…2T = molecular target: WVPE2…2T
…2…2R = molecular target: …2…2R
LS2…2RPGW = molecular target: LS2…2RPGW
[7] = molecular target: WNWVPE2…
[8] = molecular target: CQI2…2…
WNWVPE2…2T = molecular target: WNWVPE2…2T
[9] = molecular target: KQEGCRL2…
CG2RL2APLRK2…2TSTSPTRC = molecular target: CG2RL2APLRK2…2TSTSPTRC
2LS2…2TREQNRIC = molecular target: 2LS2…2TREQNRIC
2LS2…2RP = molecular target: 2LS2…2RP
…2RP = molecular target: …2RP
…2RPG = molecular target: …2RPG
[10] = molecular target: PE2LS2…2…
[11] = molecular target: EGCRL2…
PE2LS2…2RPGW = molecular target: PE2LS2…2RPGW
WVPE2…2 = molecular target: WVPE2…2
NRI2…2RL = molecular target: NRI2…2RL
[12] = molecular target: WY2…
PE2LSCGSR2…2 = molecular target: PE2LSCGSR2…2
[13] = molecular target: 2…
[14] = molecular target: WY2…2…
[15] = molecular target: TSDVV2…
CAPLRK2…2APGTFSN = molecular target: CAPLRK2…2APGTFSN
VPE2LSCGSR2…2T = molecular target: VPE2LSCGSR2…2T
[16] = molecular target: WNWVPE2…; remark: listed apart in the source

WY2…, sequence (peptide, as listed by the source): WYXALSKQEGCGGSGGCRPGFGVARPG
SKQEGCRL2…, sequence (peptide, as listed by the source): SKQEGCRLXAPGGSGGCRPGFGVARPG
…2RPGW, sequence (peptide, as listed by the source): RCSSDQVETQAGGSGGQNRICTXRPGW
…2RP, sequence (peptide, as listed by the source): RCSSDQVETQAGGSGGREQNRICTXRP
2…, sequence (peptide, as listed by the source): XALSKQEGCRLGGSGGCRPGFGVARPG
EGCRL2…, sequence (peptide, as listed by the source): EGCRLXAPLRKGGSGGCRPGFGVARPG
KQEGCRL2…, sequence (peptide, as listed by the source): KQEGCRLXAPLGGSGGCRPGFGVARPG

agonistic TNFR2 antibody MR2-1
Raw luminescence data (E2LS2…2RPGW): 233
Raw luminescence data (LCAPLRK2…2APGTFSN): 262
Raw luminescence data (C2…22SK2SPGQHC): 263
Raw luminescence data [1]: 245
Raw luminescence data (E2LSCGSR2…2T): 225
Raw luminescence data (LSCGSR2…2T2): 226
Raw luminescence data (…2…2RPGW): 270
Raw luminescence data (QNRI2…2R): 242
Raw luminescence data (LSKQEG2…2APGTFSN): 247
Raw luminescence data (LS2…2TREQNRIC): 232
Raw luminescence data (E2LSCGSR2…2): 262
Raw luminescence data (2LSCGSR2…2): 251
Raw luminescence data (CAPLRK2…2RLC): 227
Raw luminescence data (LSCGSR2…2): 274
Raw luminescence data [2]: 233
Raw luminescence data (…2…2TSTSPTRC): 267
Raw luminescence data (NWVPE2…2T): 283
Raw luminescence data (WVPE2…2T2): 287
Raw luminescence data (…2RPGW): 308
Raw luminescence data (RLCAPLRK2…2APGTFSN): 320
Raw luminescence data (E2LS2…2TREQNRIC): 299
Raw luminescence data [3]: 288
Raw luminescence data [4]: 342 and 337
Raw luminescence data [5]: 299
Raw luminescence data (VPE2LS2…2RPG): 295
Raw luminescence data (…2…2RPG): 304
Raw luminescence data [6]: 301
Raw luminescence data (LWNWVPE2…2T2): 353
Raw luminescence data (E2LS2…2RPG): 314
Raw luminescence data (WVPE2…2T): 312
Raw luminescence data (…2…2R): 299
Raw luminescence data (LS2…2RPGW): 299
Raw luminescence data [7]: 291
Raw luminescence data [8]: 286
Raw luminescence data (WNWVPE2…2T): 323
Raw luminescence data [9]: 352
Raw luminescence data (CG2RL2APLRK2…2TSTSPTRC): 287
Raw luminescence data (2LS2…2TREQNRIC): 288
Raw luminescence data (2LS2…2RP): 362
Raw luminescence data (…2RP): 324
Raw luminescence data (…2RPG): 341 and 293
Raw luminescence data [10]: 317
Raw luminescence data [11]: 359
Raw luminescence data (PE2LS2…2RPGW): 305
Raw luminescence data (WVPE2…2): 317
Raw luminescence data (NRI2…2RL): 296
Raw luminescence data [12]: 344
Raw luminescence data (PE2LSCGSR2…2): 312
Raw luminescence data [13]: 351
Raw luminescence data [14]: 287
Raw luminescence data [15]: 323
Raw luminescence data (CAPLRK2…2APGTFSN): 293
Raw luminescence data (VPE2LSCGSR2…2T): 292
Raw luminescence data [16]: 220
